Reference: patent US20260242478A1 (published 2026)
Where no end group is shown, it is not given here.

B1: Phage-3898 (peptide)
peptide: ESQYCVPRWMCDGF
notes: tested as crude clonal phage supernatant
B2: Phage-3899 (peptide)
peptide: FERVCVPAWMCAGF
notes: as for B1
B3: Phage-3900 (peptide)
peptide: GNDYCVPAWMCAGF
notes: as for B1
B4: Phage-3901 (peptide)
peptide: YVMMCVPQWMCTAK
notes: as for B1
B5: Phage-3902 (peptide)
peptide: GHMYCSPLWMCEGF
notes: as for B1
B6: Phage-3903 (peptide)
peptide: LGPMCRPNWMCVGL
notes: as for B1
B7: Phage-3904 (peptide)
peptide: GYHLCIPEWMCSGL
notes: as for B1
B8: Phage-3905 (peptide)
peptide: ADVLCRPHWMCAGF
notes: as for B1
B9: Phage-3906 (peptide)
peptide: SDALCRPHWMCAGF
notes: as for B1
B10: Phage-3907 (peptide)
peptide: SLERCEPPWMCFGF
notes: as for B1
B11: Phage-3908 (peptide)
peptide: TERMCSPSWMCDGF
notes: as for B1
B12: Phage-3909 (peptide)
peptide: VMAVCQPEWMCSGM
notes: as for B1

Columns and labels:
PSMA Fab [1] = biological target: T1, PSMA Fab; experiment: phage ELISA, clonal phage on captured PSMA Fab pre-incubated with PSMA antigen as competitor, anti-M13 HRP detection
T1 construct: In the phage ELISA the PSMA Fab was biotinylated and captured on neutravidin coated plates; also called anti-PSMA Fab; 006 PSMA Fab
Method: (§1) Clonal phage were harvested as crude supernatants and screened via standard ELISAs. […] Prior to the addition of clonal phage. wells were incubated with blocking buffer and PSMA antigen or blocking buffer alone. Without washing or aspirating, clonal phage supernatants were then added to the wells and incubated for a short time. Wells were then washed followed by detection of bound phage using a horse radish conjugated anti-M13 antibody.

PSMA Fab [2] = biological target: T1, PSMA Fab; experiment: phage ELISA, clonal phage on biotinylated PSMA Fab captured on neutravidin plate, anti-M13 HRP detection;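 further: crude clonal phage supernatants added to wells preincubated with PSMA antigen in blocking buffer or with blocking buffer only, giving a competition and a no-competitor control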
Method: as §1

PSMA Fab [3] = biological target: T2, PSMA Fab; experiment: clonal phage ELISA; biotinylated PSMA Fab on neutravidin plate, blocking buffer alone; anti-M13 HRP detection;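 further: crude clonal phage supernatants added without washing to wells pretreated with blocking buffer with or without PSMA antigen, short incubation, then washed before detecting bound phage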
T2 construct: also called Anti-PSMA Fab; 006 PSMA Fab
Method: as §1

PSMA Fab [4] = biological target: T2, PSMA Fab; experiment: clonal phage ELISA; biotinylated PSMA Fab on neutravidin plate, wells first incubated with PSMA antigen as competitor; anti-M13 HRP detection
Method: as §1

Anti-PSMA Fab [5] = biological target: T3, Anti-PSMA Fab; experiment: clonal phage ELISA; biotinylated anti-PSMA Fab on neutravidin plate; anti-M13 HRP detection; competitor: PSMA antigen pre-added
T3 construct: Biotinylated and captured on neutravidin plates in the phage ELISA; also called 006 PSMA Fab
Method: as §1

Anti-PSMA Fab [6] = biological target: T3, Anti-PSMA Fab; experiment: clonal phage ELISA; biotinylated anti-PSMA Fab on neutravidin plate; anti-M13 HRP detection; no PSMA added
Method: as §1

PSMA Fab (006 PSMA Fab) [7] = biological target: T4, PSMA Fab (006 PSMA Fab); experiment: phage ELISA; biotinylated PSMA Fab on neutravidin plate, clonal phage supernatant, anti-M13 HRP detection;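 further: wells preincubated with PSMA antigen in blocking buffer or with blocking buffer only before clonal phage were added for a short incubation, then bound phage detected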
T4 construct: also called Anti-PSMA Fab; anti-PSMA Fab
Method: as §1

PSMA Fab (006 PSMA Fab) [8] = biological target: T4, PSMA Fab (006 PSMA Fab); experiment: phage ELISA; PSMA Fab on plate pre-incubated with PSMA antigen as competitor, anti-M13 HRP detection;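 further: crude clonal phage supernatants added to Fab-coated wells still holding PSMA antigen in blocking buffer, with bound phage as read-out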
Method: as §1

Binder	Phage binding ELISA signal, Anti-PSMA Fab (PSMA Fab [3])	phage binding ELISA signal, Anti-PSMA Fab in the presence of PSMA (PSMA Fab [4])	Phage binding ELISA signal, Anti-PSMA Fab with PSMA antigen (Anti-PSMA Fab [5])	Phage binding ELISA signal, Anti-PSMA Fab (Anti-PSMA Fab [6])	also measured
FRDYCVPPWMCVGM [Phage-3401]					Phage binding ELISA signal, Anti-PSMA Fab in presence of PSMA (PSMA Fab [1]): 0.0791; Phage binding ELISA signal, Anti-PSMA Fab (PSMA Fab [2]): 1.8
QFLVCKPSWMCNGF [Phage-3402]					Phage binding ELISA signal, Anti-PSMA Fab in presence of PSMA (PSMA Fab [1]): 0.0882; Phage binding ELISA signal, Anti-PSMA Fab (PSMA Fab [2]): 1.8
VERYCVPQWMCDGF [Phage-3403]					Phage binding ELISA signal, Anti-PSMA Fab in presence of PSMA (PSMA Fab [1]): 0.117; Phage binding ELISA signal, Anti-PSMA Fab (PSMA Fab [2]): 1.8
AALRCVPTWMCEGF [Phage-3404]					Phage binding ELISA signal, Anti-PSMA Fab in presence of PSMA (PSMA Fab [1]): 0.0793; Phage binding ELISA signal, Anti-PSMA Fab (PSMA Fab [2]): 1.79
EVLLCKPEWMCTGF (cysteine pairing not given here; also: fused to pIII of bacteriophage) [Phage-3463]	1.74	0.0669			
EIKHCIPEWMCSGF (cysteine pairing not given here; also: fused to pIII of bacteriophage) [Phage-3464]	1.74	0.104			
ETHFCKPKWMCVGF (cysteine pairing not given here; also: fused to pIII of bacteriophage) [Phage-3465]	1.74	0.0927			
LEAACRPMWMCLGF (cysteine pairing not given here; also: fused to pIII of bacteriophage) [Phage-3466]	1.73	0.0664			
WEARCQPTWMCTGF (cysteine pairing not given here; also: fused to pIII of bacteriophage) [Phage-3467]	1.73	0.0667			
TNPMCVPEWMCYGF [Phage-3468]	1.73	0.0628			
EIVKCVPPWMCSGI [Phage-3469]	1.73	0.0727			
VDQVCIPDWMCNGF [Phage-3470]	1.73	0.0771			
SVPSCVPPWMCIGF [Phage-3471]	1.73	0.0613			
QEVWCRPIWMCEGF [Phage-3472]	1.73	0.109			
EGTWCRPAWMCDGF [Phage-3473]	1.73	0.0819			
LERACKPMWMCEGF [Phage-3474]	1.73	0.0863			
EDRICEPDWMCAGF [Phage-3475]	1.73	0.105			
VVAVCKPLWMCEAF [Phage-3618]			0.062	1.57	
ADHMCVPQWMCSGF [Phage-3619]			0.103	1.57	
DERMCVPEWMCMGM [Phage-3620]			0.0714	1.57	
HDYACVPKWMCEGL [Phage-3621]			0.0818	1.57	

Binder	Phage binding ELISA signal, Anti-PSMA Fab (PSMA Fab [3])	phage binding ELISA signal, Anti-PSMA Fab in the presence of PSMA (PSMA Fab [4])	Phage binding ELISA signal, Anti-PSMA Fab with PSMA antigen (Anti-PSMA Fab [5])	Phage binding ELISA signal, Anti-PSMA Fab (Anti-PSMA Fab [6])	also measured
YMMKCIPEWMCTGL [Phage-3622]			0.0662	1.56	
IVKFCIPQWMCDGF [Phage-3623]			0.147	1.56	
DDRVCRPDWMCNGF [Phage-3624]			0.0665	1.56	
DWVMCKPEWMCAGF [Phage-3625]			0.0618	1.55	
AGYACVPSWMCEGF [Phage-3626]			0.105	1.55	
LAVKCEPAWMCTGF [Phage-3627]			0.0802	1.55	
VHPMCTPLWMCVGF [Phage-3628]			0.0993	1.55	
DLMMCVPAWMCEGF [Phage-3629]			0.0929	1.55	
ELHLCIPSWMCTGL [Phage-3630]			0.104	1.54	
B1					Phage binding ELISA signal, Anti-PSMA Fab (PSMA Fab (006 PSMA Fab) [7]): 1.08; Phage binding ELISA signal, Anti-PSMA Fab in presence of PSMA antigen (PSMA Fab (006 PSMA Fab) [8]): 0.0633
B2					Phage binding ELISA signal, Anti-PSMA Fab (PSMA Fab (006 PSMA Fab) [7]): 1.07; Phage binding ELISA signal, Anti-PSMA Fab in presence of PSMA antigen (PSMA Fab (006 PSMA Fab) [8]): 0.0668
B3					Phage binding ELISA signal, Anti-PSMA Fab (PSMA Fab (006 PSMA Fab) [7]): 1.06; Phage binding ELISA signal, Anti-PSMA Fab in presence of PSMA antigen (PSMA Fab (006 PSMA Fab) [8]): 0.0974
B4					Phage binding ELISA signal, Anti-PSMA Fab (PSMA Fab (006 PSMA Fab) [7]): 1.06; Phage binding ELISA signal, Anti-PSMA Fab in presence of PSMA antigen (PSMA Fab (006 PSMA Fab) [8]): 0.069
B5					Phage binding ELISA signal, Anti-PSMA Fab (PSMA Fab (006 PSMA Fab) [7]): 1.06; Phage binding ELISA signal, Anti-PSMA Fab in presence of PSMA antigen (PSMA Fab (006 PSMA Fab) [8]): 0.131
B6					Phage binding ELISA signal, Anti-PSMA Fab (PSMA Fab (006 PSMA Fab) [7]): 1.06; Phage binding ELISA signal, Anti-PSMA Fab in presence of PSMA antigen (PSMA Fab (006 PSMA Fab) [8]): 0.0797
B7					Phage binding ELISA signal, Anti-PSMA Fab (PSMA Fab (006 PSMA Fab) [7]): 1.06; Phage binding ELISA signal, Anti-PSMA Fab in presence of PSMA antigen (PSMA Fab (006 PSMA Fab) [8]): 0.0923
B8					Phage binding ELISA signal, Anti-PSMA Fab (PSMA Fab (006 PSMA Fab) [7]): 1.06; Phage binding ELISA signal, Anti-PSMA Fab in presence of PSMA antigen (PSMA Fab (006 PSMA Fab) [8]): 0.0581
B9					Phage binding ELISA signal, Anti-PSMA Fab (PSMA Fab (006 PSMA Fab) [7]): 1.06; Phage binding ELISA signal, Anti-PSMA Fab in presence of PSMA antigen (PSMA Fab (006 PSMA Fab) [8]): 0.061
B10					Phage binding ELISA signal, Anti-PSMA Fab (PSMA Fab (006 PSMA Fab) [7]): 1.06; Phage binding ELISA signal, Anti-PSMA Fab in presence of PSMA antigen (PSMA Fab (006 PSMA Fab) [8]): 0.0697
B11					Phage binding ELISA signal, Anti-PSMA Fab (PSMA Fab (006 PSMA Fab) [7]): 1.05; Phage binding ELISA signal, Anti-PSMA Fab in presence of PSMA antigen (PSMA Fab (006 PSMA Fab) [8]): 0.0693
B12					Phage binding ELISA signal, Anti-PSMA Fab (PSMA Fab (006 PSMA Fab) [7]): 1.05; Phage binding ELISA signal, Anti-PSMA Fab in presence of PSMA antigen (PSMA Fab (006 PSMA Fab) [8]): 0.0731
